The record followed here is paper PMC12256440.

The assay deals with MSC membrane glycoproteins (plasminogen membrane receptors) (human (endogenous in MSCs)).

Consider Glu-plasminogen (natural protein), for which the Michaelis-Menten constant of plasmin formation on scuPA-treated MSCs, plasminogen 0-2 μM, chromogenic substrate CBS0065 was 0.5 µM.
